Source: IntAct's records for PubMed 10743655

B1: Zinc finger protein CONSTANS (Arabidopsis thaliana (Mouse-ear cress)), Q39057 (parent)
chain: MLKQESNDIGSGENNRARPCDTCRSNACTVYCHADSAYLCMSCDAQVHSANRVASRHKRVRVCESCERAPAAFLCEADDASLCTACDSEVHSANPLARRHQRVPILPISGNSFSSMTTTHHQSEKTMTDPEKRLVVDQEEGEEGDKDAKEVASWLFPNSDKNNNNQNNGLLFSDEYLNLVDYNSSMDYKFTGEYSQHQQNCSVPQTSYGGDRVVPLKLEESRGHQCHNQQNFQFNIKYGSSGTHYNDNGSINHNAYISSMETGVVPESTACVTTASHPRTPKGTVEQQPDPASQMITVTQLSPMDREARVLRYREKRKTRKFEKTIRYASRKAYAEIRPRVNGRFAKREIEAEEQGFNTMLMYNTGYGIVPSF
partner: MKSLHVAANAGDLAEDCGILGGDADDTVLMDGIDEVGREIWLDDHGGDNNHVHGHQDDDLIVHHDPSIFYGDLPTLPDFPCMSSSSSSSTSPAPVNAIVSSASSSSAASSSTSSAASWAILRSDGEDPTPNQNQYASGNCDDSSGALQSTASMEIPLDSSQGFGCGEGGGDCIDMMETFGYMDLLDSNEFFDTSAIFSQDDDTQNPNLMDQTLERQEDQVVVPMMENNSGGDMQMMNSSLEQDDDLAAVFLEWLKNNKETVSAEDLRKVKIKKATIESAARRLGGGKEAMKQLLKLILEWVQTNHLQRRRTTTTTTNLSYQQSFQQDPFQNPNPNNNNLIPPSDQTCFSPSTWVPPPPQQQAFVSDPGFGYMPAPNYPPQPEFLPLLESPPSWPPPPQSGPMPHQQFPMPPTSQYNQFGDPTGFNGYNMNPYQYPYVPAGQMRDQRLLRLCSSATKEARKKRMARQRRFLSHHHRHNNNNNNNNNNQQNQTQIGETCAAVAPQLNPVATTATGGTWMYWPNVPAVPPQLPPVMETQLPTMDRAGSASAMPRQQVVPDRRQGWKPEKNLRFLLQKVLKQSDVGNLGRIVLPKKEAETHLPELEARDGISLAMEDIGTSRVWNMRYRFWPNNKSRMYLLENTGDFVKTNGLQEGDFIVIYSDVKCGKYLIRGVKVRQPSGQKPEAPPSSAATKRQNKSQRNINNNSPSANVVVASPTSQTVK

Variants of: B1
Details: with abi3_arath ABI3, Q01593

Variant	effect of a mutation on the interaction
R340Q	decreasing interaction strength
P339L	decreasing interaction
